Experiment [1] concerns the target T1, human PTH/PTHrP receptor (Homo sapiens, UniProt Q03431).
T1 sequence (Q03431 27-593): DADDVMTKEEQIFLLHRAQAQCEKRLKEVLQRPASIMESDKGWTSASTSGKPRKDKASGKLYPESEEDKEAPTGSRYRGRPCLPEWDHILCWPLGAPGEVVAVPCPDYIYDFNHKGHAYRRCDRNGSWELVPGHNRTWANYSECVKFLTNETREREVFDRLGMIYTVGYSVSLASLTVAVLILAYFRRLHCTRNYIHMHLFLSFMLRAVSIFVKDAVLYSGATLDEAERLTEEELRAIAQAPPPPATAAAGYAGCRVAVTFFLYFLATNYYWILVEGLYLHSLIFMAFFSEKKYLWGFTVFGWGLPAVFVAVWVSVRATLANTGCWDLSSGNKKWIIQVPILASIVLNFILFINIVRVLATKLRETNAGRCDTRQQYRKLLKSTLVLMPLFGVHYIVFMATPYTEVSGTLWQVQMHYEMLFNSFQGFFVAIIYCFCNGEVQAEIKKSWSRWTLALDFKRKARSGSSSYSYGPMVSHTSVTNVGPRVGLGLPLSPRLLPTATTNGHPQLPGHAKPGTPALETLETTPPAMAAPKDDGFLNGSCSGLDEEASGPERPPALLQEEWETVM
Description: Cytosolic free calcium (fura-2) in LLC-PK1 cells expressing human PTHR. Conditions: 100 nM peptide; HKRK B7 cells.
Description: Cytosolic free calcium was measured in fura 2AM-loaded confluent monolayers of cells.
Cytosolic free calcium was measured by dual fluorescence in cells loaded with the Ca^2+-sensitive intracellular probe fura-2. Cells were seeded onto glass coverslips at a density of 40,000-600,000/cm^2 and incubated for 2 days as described above. Coverslips were washed twice with PBS before loading in phosphate-free Buffer B containing 4 uM of fura-2/AM (Molecular Probes, Eugene, Oreg.) for 30 min at room temperature (22° C.). After washing twice with fura-free Buffer B, the coverslips were mounted in a cuvette containing 2 ml of phosphate-free Buffer B at 37° C. and the emission at 510 nm in response to alternating excitation at 340 and 380 nm was monitored using a ratiometric PTI Deltascan fluorescence spectrometer with excitation and emission bandwidths of 2 nm. After achieving a stable baseline, agonists were introduced by exchange into 2 ml of fresh buffer to which 10-20 ul of concentrated agonist stock (or vehicle alone) had been added. Peptide stocks were prepared in 0.1% trifluoroacetic acid, ionomycin and phorbol esters were dissolved in dimethyl sulfoxide and all other additives were prepared in water. Maximum and minimum fluorescence signals were obtained by exposure to modified buffers containing 1 uM ionomycin plus 20 mM calcium or 2 mM EGTA in the nominal absence of calcium, respectively, and autofluorescence was estimated from signals obtained in the presence of ionomycin plus 2.5 mM MnCl2.

Experiment [2] addresses T1, human PTH/PTHrP receptor. As to the kind of experiment: Urokinase-type plasminogen activator (u-PA) secretion bioassay in LLC-PK1 cells expressing human PTHR. Conditions: for secreted u-PA: peptide 1000 nM, 16 hr, mean±SEM.
Description: Cells were seeded into 96-well plates at a density of 6×10^4 cells/well and used the following day. The cells were washed once with 0.2 ml and then refed with 0.1 ml of prewarmed DMEM containing 0.05% BSA. After adding each stimulator, plates were returned to the incubator at 37° C. for 16 h. Conditioned medium (5 ul) then was transferred from each well to a clean microplate. […] Activity was expressed in Ploug units/well, using purified human urokinase (Calbiochem) as a standard.
Cells were incubated with the indicated peptides (1000 nM) for 16 hr before measurement of secreted u-PA present in the medium, which was expressed as a percentage of the activity measured in vehicle-treated controls. Values shown are means±SEM of triplicate determinations.
Experiment [3] concerns the target T1, human PTH/PTHrP receptor. Description: IP3 production (PLC activation) in LLC-PK1 cells expressing human PTHR. It is filed as cell-based. Conditions: for activation of PLC (in words): 1000 nM, HKRK B28 at 4 min and HKRK B7 at 30 min; for formation of IP3 (activation of phospholipase-C): peptide 1000 nM, mean±SEM. Also on record: transfected with a full-length human PTH/PTHrP receptor cDNA; expressed in transfected cells. On the procedure:
Cells were seeded into 24-well plates at a density of 2.5×10^5 cells/well and cultured for a further 2 days before study. The cells were labeled at 37° C. for 16 h before assay with 3 uCi/ml of [^3H]myo-inositol in assay medium (serum- and inositol-free DMEM (GIBCO-BRL, Grand Island, N.Y.) supplemented with 0.1% BSA). After washing the cells with prewarmed assay medium containing 30 mM LiCl, they were incubated with 0.25 ml of assay medium containing 30 mM LiCl and stimulators (or vehicle) at 37° C. for various intervals(1-30 min). IP3 formation was arrested by aspiration and immediate addition of 0.5 ml of ice-cold 5% TCA. The acid extracts then were extracted twice with two volumes of water-saturated ether and adjusted to pH 7.4 with concentrated NaOH and Tris base (final concentration=10 mM) prior to chromatography on AG 1×8 anion-exchange columns (Bio-Rad, Richmond, Calif.), as previously described (Guo, J., et al., Endocrinology 136:3884-3891 (1995)). After eluting other fractions (free [^3H]myo-inositol, glycerophosphate inositol, IP1, and IP2), IP3 fractions were collected and their content of radioactivity was determined by liquid scintillation spectrometry (Beckman, model LS 6000IC).
HKRK B7 cells and HKRK B28 cells, previously loaded with [^3H]myo-inositol, were incubated with each peptide (1000 nM) for 30 min or 4 min, respectively. The formation of IP3 is expressed as a percentage of the amount measured in vehicle-treated controls. Values shown are means±SEM of triplicate determinations.

The target in experiment [4] is T1, human PTH/PTHrP receptor. Description: Cellular phosphate uptake in LLC-PK1 cells expressing human PTHR. It is filed as cell-based. Also on record: transfected with a full-length human PTH/PTHrP receptor cDNA; expressed in transfected cells. Conditions: HKRK B28 and HKRK B7 cells; peptides 1000 nM, 6 hr. As for the experimental part:
FIG. 8. Regulation of phosphate uptake by PTH in HKRK B7 and HKRK B28 cells. […] Results are expressed as percentage of basal, and each bar represents the mean±SEM of a representative experiment performed in triplicate. Similar results were obtained from at least 5 individual experiments. Cells were seeded into 24-well plates at a density of 2.5×10^5 cells/well and cultured for a further 2 days before study. Twenty four hours before assay, cells were refed with 0.5 ml of DMEM containing 0.1% BSA. The next day, cells were refed with serum-free medium (DMEM+0.1% BSA) containing drugs or peptides, and the incubations were continued at 37° C. under 5% CO2 in air for another 6 hr. Cells then were washed with prewarmed Buffer B without BSA and Na2HPO4 and then were incubated at 37° C. for 5 min in 0.25 ml of the same buffer containing [^32P]orthophosphate (4 uCi/ml) and 0.1 mM Na2HPO4. Phosphate uptake was arrested by adding 1 ml of ice-cold sodium-free “stop buffer” [10 mM HEPES (pH 7.4), 140 mM choline chloride, and 5 mM sodium arsenate], followed by two further washes with same buffer. The drained cell layer then was solubilized in 0.5 ml of Lysis Buffer, and cell-associated radioactivity was determined by Cerenkov counting, as previously described (Guo, J., et al., Endocrinology 136:3884-3891 (1995)).

For experiment [5], the target named is T1, human PTH/PTHrP receptor. As to the kind of experiment: Cellular cAMP accumulation in LLC-PK1 cells expressing human PTHR. In kind it is cell-based. The arrangement: transfected with a full-length human PTH/PTHrP receptor cDNA; expressed in transfected cells. Conditions: HKRK B28 cells; for activation of AC (in words): similar in HKRK B7. On the procedure: Cells were seeded into 24-well plates at a density of 2.5×10^5 cells/well and cultured for a further 2 days before study. The cells were rinsed once with 0.5 ml of ice-cold Buffer B [10 mM HEPES (pH 7.4), 130 mM NaCl, 5 mM KCl, 1.2 mM CaCl2, 1 mM MgCl2, 1.2 mM Na2HPO^4 5 mM glucose, and 0.1% heat-inactivated BSA] supplemented with 1 mM isobtylmethylxanthine (IBMX), and placed on ice. Treatments were added to each well in 0.25 ml of IBMX-supplemented Buffer B, after which the plates were incubated at 37° C. for 15 min. The buffer then was rapidly aspirated, the plates were rapidly transferred onto liquid nitrogen, and the frozen monolayers were subsequently thawed directly into 0.5 ml of 50 mM HCl. The extracted cAMP then was measured using a commercial RIA kit (Dupont-New England Nuclear, Boston, Mass.). Results were expressed as fold-basal, where basal levels ranged between 38 and 128 pmol/mg protein/15 min. The basal level of cAMP accumulation in native LLC-PK1 cells was not consistently altered in subclones that expressed wild type PTH/PTHrp receptors.
Maximal PTH-dependent cAMP accumulation was assessed in the human PTHR-transfected LLC-PK1 subclones following incubation for 15 min with a high concentration (1000 nM) of hPTH(1-34) (Table 1). As reported previously for LLC-PK1 cells that stably expressed rat PTHRs (Guo, J., et al., Endocrinology 136:3884-3891 (1995)), the maximal adenylyl cyclase response was relatively independent of the surface density of human PTHRs above a relatively low threshold (relative to that required for PLC activation—see below). In the case of the human PTHR, however, this threshold for saturation of maximal AC activation appeared to lie between 120,000 and 280,000 (Table 1), which is at least 6 to 10-fold higher than that previously observed for the rat PTHR (Guo, J., et al., Endocrinology 136:3884-3891 (1995)).

Setting [6] is: HKRK B7 cells, 30 min stimulation.
The mark [7] stands for this setting: HKRK B28 cells, 4 min stimulation.

This note sets out measurements from patent US7033773B1, “Screening assays for G protein coupled receptor agonists and antagonists” (The General Hospital Corporation, priority 1997, dated 2006).

Where no end group is shown, it is not given here.

Take “hPTH(3-34) (SEIQLMHNLGKHLNSMERVEWLRKKLQDVHNF-NH2; UniProt P01270 34-65, looked up, fragment) [amino-terminally truncated human PTH analog]”: in the experiment with human PTH/PTHrP receptor [1], the “cytosolic free calcium transients” value is on record as “neither hPTH(3-34) nor hPTH(7-34) (100 nM) induced this response”. Besides, the “u-PA bioassay activity, % of maximal response to hPTH(1-34)” value with human PTH/PTHrP receptor [2] (HKRK B7 and HKRK B28 cells) was 50-60%. Moreover, the “secreted u-PA” value with human PTH/PTHrP receptor [2] (HKRK B7 cells) is 57 ± 3 percentage of the activity measured in vehicle-treated controls; with human PTH/PTHrP receptor [2] (HKRK B28 cells), 50 ± 1 percentage of the activity measured in vehicle-treated controls. For the same substance, the “activation of PLC (in words)” value in the experiment with human PTH/PTHrP receptor [3] is reported as “neither hPTH(3-34) nor hPTH(7-34) activated PLC significantly”. Moreover, the “formation of IP3 (activation of phospholipase-C)” value (from here on “formation of IP3”) with human PTH/PTHrP receptor [3] (setting [6]) is 103 ± 1 percentage of vehicle-treated; in the experiment with human PTH/PTHrP receptor [3] (setting [7]) it was 85 ± 9 percentage of vehicle-treated. The “maximal activation of phosphate uptake (in words)” value (“maximal activation” for short) with human PTH/PTHrP receptor [4] is “inactive”. For the same substance, the “concentrations at which AC was stimulated significantly” value with human PTH/PTHrP receptor [5] is on record as at least 10 nM. Besides, the “cAMP response as % of the maximal response to hPTH(1-34)” value with human PTH/PTHrP receptor [5] (1000 nM peptide) is reported as 16%.
Turning to “hPTH(7-34) (LMHNLGKHLNSMERVEWLRKKLQDVHNF; Parathyroid hormone; UniProt P01270 38-65, looked up, fragment) [amino-terminally truncated human PTH analog]”, the “cytosolic free calcium transients” value with human PTH/PTHrP receptor [1] is reported as “neither hPTH(3-34) nor hPTH(7-34) (100 nM) induced this response”. For the same substance, the “u-PA bioassay activity (in words)” value with human PTH/PTHrP receptor [2] (HKRK B7 and HKRK B28 cells) was “inactive”. The “secreted u-PA” value in the experiment with human PTH/PTHrP receptor [2] (HKRK B7 cells) was 1 ± 1 percentage of the activity measured in vehicle-treated controls; with human PTH/PTHrP receptor [2] (HKRK B28 cells), 0 ± 2 percentage of the activity measured in vehicle-treated controls. The “activation of PLC (in words)” value in the experiment with human PTH/PTHrP receptor [3] is given as “neither hPTH(3-34) nor hPTH(7-34) activated PLC significantly”. Further, the “formation of IP3” value is 122 ± 7 percentage of vehicle-treated with human PTH/PTHrP receptor [3] (setting [6]) and 92 ± 10 percentage of vehicle-treated in the experiment with human PTH/PTHrP receptor [3] (setting [7]). Besides, the “maximal activation” value with human PTH/PTHrP receptor [4] is “inactive”. The “activation of AC (in words)” value in the experiment with human PTH/PTHrP receptor [5] is reported as “failed to activate AC at all concentrations tested”.
For the substance hPTHrp(1-36), the “secreted u-PA” value is on record as 88 ± 5 percentage of the activity measured in vehicle-treated controls with human PTH/PTHrP receptor [2] (HKRK B7 cells) and 97 ± 9 percentage of the activity measured in vehicle-treated controls with human PTH/PTHrP receptor [2] (HKRK B28 cells). Further, the “activation of PLC (in words)” value in the experiment with human PTH/PTHrP receptor [3] is given as “stimulated PLC equivalently to hPTH(1-34)”. The “formation of IP3” value in the experiment with human PTH/PTHrP receptor [3] (setting [6]) was 93 ± 6 percentage of vehicle-treated; with human PTH/PTHrP receptor [3] (setting [7]), 160 ± 9 percentage of vehicle-treated. For the same substance, in the experiment with human PTH/PTHrP receptor [4], the “maximal activation” value is “comparable maximal activation of phosphate uptake”. In the experiment with human PTH/PTHrP receptor [5], the “activation of AC (in words)” value is “indistinguishable from that to hPTH(1-34)”.
